B1: VacW-209 (antibody, V domains shown)
VH: QVQLVESGGGVVQPGRSLRLSCAASGFTFSSIAMHWVRQAPGKGLEWVAVMSFDGSIKYYGDSVKGRFTISRDNSKSTLYLQMNSLRAEDTAVYYCARGVQGYYDRSGYYNLDYNYGMDVWGQGTTVTVSS
VL: QSVLTQPPSVSGAPGQRVTISCTGSSSNIGAGYDVHWYQQLPGTAPKLLIYGNSNRPSGVPDRFSGSKSGTSASLAITGLQAEDEADYYCQSYDSSLSGWVFGGGTKLTVL
B2: C118 (antibody, V domains shown)
VH: QVQLVESGGGVVQPGRSLRLSCAASGFTFSNYAMHWVRQAPGKGLEWVAVISYDGSNKYYADSVKGRFTISRDNSKNTLYLQMNSLRAEDTAIYYCASGYTGYDYFVRGDYYGLDVWGQGTTVTVSS
VL: QPVLTQSPSASASLGASVKLTCTLSSGHSSYAIAWHQQQPEKGPRYLMKLNTDGSHSKGDGIPDRFSGSSSGAERYLTISSLQSEDEADYYCQTWGTGILVFGGGTKLTVL
B3: C022 (antibody, V domains shown)
VH: QVQLQESGPGLVKPSETLSVTCTVSGGSISSSRYYWGWIRQPPGKGLEWIGSIYYSGSTYYNPSLKSRVTISVDTSKNQFSLKLSSVTAADTAVYYCARHAAAYYDRSGYYFIEYFQHWGQGTLVTVSS
VL: DIQMTQSPSTLSASVGDSVTITCRASQSISSWLAWYQQKPGKAPKLLIYKASSLESGVPSRFSGSGSGTEFTLTISSLQPDDFATYYCQQYNNYRYTFGQGTKLEIK
B4: S2X35 (antibody, V domains shown)
VH: QVQLVQSGAEVKKPGASVKVSCKASGYTFTNYGISWVRQAPGQGLEWMGWISAYKGNTNYAQKLQGRVTMTTDTSTSTAYMELRSLRSDDTAVYYCARPDYQVLGYDFWIGYYGMDVWGQGTTVIVSS
VL: QSVLTQPPSVSGAPGQRVTISCTGSSSNIGAGYDVHWYQQLPGTAPKLLIYGNTNRPSGVPDRFSGSKSGTSASLAITGLQAEDEADYYCQSYDSSLSGSEVVFGGGTKLTVL
B5: H014 (antibody, V domains shown)
VH: EVQLVQSGAEVKKPGATVKISCKVSGYSFSNYYIHWVKQAPGKSLEWIGYIDPFNGGTSDNLKFKGAATLTADTSTDTAYMELSSLRSEDTAVYYCARSEYDPYYVMDYWGQGTTVTVSS
VL: IVLTQSPFQSVSPKEKVTITCRASQSISSNLHWYQQKPDQSPKLLIKYASQSISGIPSRFSGSGSGTDFTLTINSLEAEDFGIYFCQQTNFWPYIFGQGTKLEIL
B6: EY6A (antibody, V domains shown)
VH: EVQLVESGGGVVQPGRSLRLSCAASAFTFSSYDMHWVRQAPGKGLEWVAVISYDGSNKYYADSVKGRFTISRDNSKNTLYLQMNSLRAEDTAVYYCAKDGGKLWVYYFDYWGQGTLVTVSS
VL: not shown

How the values were obtained:
[1] = target: T1, RBD protein of SARS-CoV (Severe acute respiratory syndrome …, UniProt P59594); experiment: cell-based or functional assay
[2] = target: T1, RBD protein of SARS-CoV; experiment: SPR
[3] = target: T2, SARS-CoV-2 WT RBD protein (residues 319-541) (SARS-CoV-2, UniProt P0DTC2); experiment: ELISA
[4] = target: T2, SARS-CoV-2 WT RBD protein (residues …); experiment: SPR

| Binder | binding result [4] | also measured |
| --- | --- | --- |
| B1 | – | IC50 of neutralisation of SARS-CoV pseudovirus (HEK-293T-hACE2 cells) [1]: 0.141 µg/mL; Kd [2]: 0.54 nM; binding result [3]: binds |
| B2 | binds | – |
| B3 | binds | – |
| B4 | binds | – |
| B5 | binds | – |
| B6 | binds | – |

— publication doi:10.1101/2022.01.19.476892 (bioRxiv, 2022)
